Reference: US20200377595A1 (Chugai, published 2020)
Several values for one entry are separate records, joined by “and”; a condition that tells them apart may be missing. Identical values can stand only once.

T1: biotin-labeled cynomolgus monkey CD137 fused to human IgG1 Fc fragment (cynomolgus monkey; human, UniProt Q07011 24-186, limits assumed, biotin-labeled)
T1 construct: also called cyno CD137-Fc; not shown: human IgG1 Fc fragment
T1 chain: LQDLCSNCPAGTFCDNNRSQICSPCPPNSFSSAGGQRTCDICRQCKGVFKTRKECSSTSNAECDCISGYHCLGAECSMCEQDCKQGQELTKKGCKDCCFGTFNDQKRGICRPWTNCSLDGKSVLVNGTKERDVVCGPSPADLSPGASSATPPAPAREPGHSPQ


What was measured:
[1] = target: T1, biotin-labeled cynomolgus monkey CD137 …; test: ELISA, IgG
[2] = target: biotinylated CD3 epsilon epitope peptide; test: SPR, method of Ref. Ex. 3, one-arm Ab

Row | Binder | binding result [1] | Kd [2]
1 | dBBDu222 (antibody, IgG1, V domains shown, IgG1) VH: QVQLVESGGGLVQPGRSLRLSCAASGFTISSAWMHWVRQAPGKGLEWVAQIKDRANGYAAYYAPSVKGRFTISRDDSKNSIYLQMNSLKTEDTAVYYCRYVHYATAYDGFYGFGVDAWGQGTTVTVSS VL: DIVMTQSPLSLPVTPGEPASISCRSSQSLVHSNRNTYLHWYQQKPGQAPRLLIYKVSNRFSGVPDRFSGSGSGTDFTLKISRVEAEDVGVYYCGQGTQVPYTFGQGTKLEIK | binds | 
2 | dBBDu179 (antibody, IgG1, V domains shown, IgG1) VH: QVQLVESGGGLVQPGRSLRLSCAASGFTFSNAWMHWVRQAPGKGLEWVAQIKDRSNQYATYYAPSVKGRFTISRDDSKNSIYLQMNSLKTEDTAVYYCHYVHYASASTVLPAFGVDAWGQGTTVTVSS VL: DIVMTQSPLSLPVTPGEPASISCRSSQSLVHSNRNTYLHWYQQKPGQAPRLLIYKVSNRFSGVPDRFSGSGSGTDFTLKISRVEAEDVGVYYCGQGTQVPYTFGQGTKLEIK | binds | 
3 | dBBDu174 (antibody, IgG1, V domains shown, IgG1) VH: QVQLVESGGGLVQPGRSLRLSCAASGFTFSSAWMHWVRQAPGKGLEWVAQIKDRASAYNAYYAESVKGRFTISRDDSKNSIYLQMNSLKTEDTAVYYCRYVHYPSYVSFLPYYGVDAWGQGTTVTVSS VL: DIVMTQSPLSLPVTPGEPASISCRSSQSLVHSNRNTYLHWYQQKPGQAPRLLIYKVSNRFSGVPDRFSGSGSGTDFTLKISRVEAEDVGVYYCGQGTQVPYTFGQGTKLEIK | binds | 
4 | dBBDu139 (antibody, IgG1, V domains shown, IgG1) VH: QVQLVESGGGLVQPGRSLRLSCAASGFTFSNAWMHWVRQAPGKGLEWVAQIKDRGNAYNAYYAESVKGRFTISRDDSKNSIYLQMNSLKTEDTAVYYCRFVHYRHPLLHIQYGVDAWGQGTTVTVSS VL: DIVMTQSPLSLPVTPGEPASISCRSSQSLVHSNRNTYLHWYQQKPGQAPRLLIYKVSNRFSGVPDRFSGSGSGTDFTLKISRVEAEDVGVYYCGQGTQVPYTFGQGTKLEIK | binds | 
5 | dBBDu217 (antibody, IgG1, V domains shown, IgG1) VH: QVQLVESGGGLVQPGRSLRLSCAASGFTFSNAWMHWVRQAPGKGLEWVAQIKDRQQGYATYYAPSVKGRFTISRDDSKNSIYLQMNSLKTEDTAVYYCRFVHYHLAGYGYYGVDAWGQGTTVTVSS VL: DIVMTQSPLSLPVTPGEPASISCRSSQSLVHSNRNTYLHWYQQKPGQAPRLLIYKVSNRFSGVPDRFSGSGSGTDFTLKISRVEAEDVGVYYCGQGTQVPYTFGQGTKLEIK | binds | 
6 | dBBDu183 (antibody, IgG1, V domains shown, IgG1) VH: QVQLVESGGGLVQPGRSLRLSCAASGFTFSNAWMHWVRQAPGKGLEWVAQIKDKGNAYAAYYAPSVKGRFTISRDDSKNSIYLQMNSLKTEDTAVYYCHYVHYASASTVLPAFGVDAWGQGTTVTVSS VL: DIVMTQSPLSLPVTPGEPASISCRSSQSLVHSNRNTYLHWYQQKPGQAPRLLIYKVSNRFSGVPDRFSGSGSGTDFTLKISRVEAEDVGVYYCGQGTQVPYTFGQGTKLEIK | binds | 
7 | CE115HA000 V11L/D72A/L78I/D101Q with GGS inserted between Kabat 99 and 100, one-arm antibody (antibody) chain 1: QVQLVESGGGLVQPGRSLRLSCAASGFTFSNAWMHWVRQAPGKGLEWVAQIKAKSNNYATYYAESVKGRFTISRADSKNSIYLQMNSLKTEDTAVYYCRYVHYGAGGSYYGVQAWGQGTTVTVSSASTKGPSVFPLAPSSKSTSGGTAALGCLVKDYFPEPVTVSWNSGALTSGVHTFPAVLQSSGLYSLSSVVTVPSSSLGTQTYICNVNHKPSNTKVDKKVEPKSCDKTHTCPPCPAPEAAGGPSVFLFPPKPKDTLMISRTPEVTCVVVDVSHEDPEVKFNWYVDGVEVHNAKTKPREEQYASTYRVVSVLTVLHQDWLNGKEYKCKVSNKALPAPIEKTISKAKGQPREPQVYTLPPSRCELTKNQVSLSCAVKGFYPSDIAVEWESNGQPENNYKTTPPVLDSDGSFFLVSKLTVDKSRWQQGNVFSCSVMHEALHNHYTQKSLSLSPDYKDDDDK chain 2: EPKSSDKTHTCPPCPAPELLGGPSVFLFPPKPKDTLMISRTPEVTCVVVDVSHEDPEVKFNWYVDGVEVHNAKTKPREEQYNSTYRVVSVLTVLHQDWLNGKEYKCKVSNKALPAPIEKTISKAKGQPREPQVCTLPPSRDELTKNQVSLWCLVKGFYPSDIAVEWESNGQPENNYKTTPPVLDSDGSFFLYSKLTVDKSRWQQGNVFSCSVMHEALHNRYTQKSLSLSP chain 3: DIVMTQSPLSLPVTPGEPASISCRSSQSLVHSNRNTYLHWYQQKPGQAPRLLIYKVSNRFSGVPDRFSGSGSGTDFTLKISRVEAEDVGVYYCGQGTQVPYTFGQGTKLEIKRTVAAPSVFIFPPSDEQLKSGTASVVCLLNNFYPREAKVQWKVDNALQSGNSQESVTEQDSKDSTYSLSSTLTLSKADYEKHKVYACEVTHQGLSSPVTKSFNRGEC |  | 63.1 nM
8 | CE115HA000 V11L/D72A/L78I/D101Q with GGSGGGS inserted between Kabat 99 and 100, one-arm antibody (antibody) chain 1: QVQLVESGGGLVQPGRSLRLSCAASGFTFSNAWMHWVRQAPGKGLEWVAQIKAKSNNYATYYAESVKGRFTISRADSKNSIYLQMNSLKTEDTAVYYCRYVHYGAGGSGGGSYYGVQAWGQGTTVTVSSASTKGPSVFPLAPSSKSTSGGTAALGCLVKDYFPEPVTVSWNSGALTSGVHTFPAVLQSSGLYSLSSVVTVPSSSLGTQTYICNVNHKPSNTKVDKKVEPKSCDKTHTCPPCPAPEAAGGPSVFLFPPKPKDTLMISRTPEVTCVVVDVSHEDPEVKFNWYVDGVEVHNAKTKPREEQYASTYRVVSVLTVLHQDWLNGKEYKCKVSNKALPAPIEKTISKAKGQPREPQVYTLPPSRCELTKNQVSLSCAVKGFYPSDIAVEWESNGQPENNYKTTPPVLDSDGSFFLVSKLTVDKSRWQQGNVFSCSVMHEALHNHYTQKSLSLSPDYKDDDDK chain 2: EPKSSDKTHTCPPCPAPELLGGPSVFLFPPKPKDTLMISRTPEVTCVVVDVSHEDPEVKFNWYVDGVEVHNAKTKPREEQYNSTYRVVSVLTVLHQDWLNGKEYKCKVSNKALPAPIEKTISKAKGQPREPQVCTLPPSRDELTKNQVSLWCLVKGFYPSDIAVEWESNGQPENNYKTTPPVLDSDGSFFLYSKLTVDKSRWQQGNVFSCSVMHEALHNRYTQKSLSLSP chain 3: DIVMTQSPLSLPVTPGEPASISCRSSQSLVHSNRNTYLHWYQQKPGQAPRLLIYKVSNRFSGVPDRFSGSGSGTDFTLKISRVEAEDVGVYYCGQGTQVPYTFGQGTKLEIKRTVAAPSVFIFPPSDEQLKSGTASVVCLLNNFYPREAKVQWKVDNALQSGNSQESVTEQDSKDSTYSLSSTLTLSKADYEKHKVYACEVTHQGLSSPVTKSFNRGEC |  | 43.5 nM and 34.3 nM
9 | CE115HA000 V11L/D72A/L78I/D101Q with GGSGGS inserted between Kabat 99 and 100, one-arm antibody (antibody) chain 1: QVQLVESGGGLVQPGRSLRLSCAASGFTFSNAWMHWVRQAPGKGLEWVAQIKAKSNNYATYYAESVKGRFTISRADSKNSIYLQMNSLKTEDTAVYYCRYVHYGAGGSGGSYYGVQAWGQGTTVTVSSASTKGPSVFPLAPSSKSTSGGTAALGCLVKDYFPEPVTVSWNSGALTSGVHTFPAVLQSSGLYSLSSVVTVPSSSLGTQTYICNVNHKPSNTKVDKKVEPKSCDKTHTCPPCPAPEAAGGPSVFLFPPKPKDTLMISRTPEVTCVVVDVSHEDPEVKFNWYVDGVEVHNAKTKPREEQYASTYRVVSVLTVLHQDWLNGKEYKCKVSNKALPAPIEKTISKAKGQPREPQVYTLPPSRCELTKNQVSLSCAVKGFYPSDIAVEWESNGQPENNYKTTPPVLDSDGSFFLVSKLTVDKSRWQQGNVFSCSVMHEALHNHYTQKSLSLSPDYKDDDDK chain 2: EPKSSDKTHTCPPCPAPELLGGPSVFLFPPKPKDTLMISRTPEVTCVVVDVSHEDPEVKFNWYVDGVEVHNAKTKPREEQYNSTYRVVSVLTVLHQDWLNGKEYKCKVSNKALPAPIEKTISKAKGQPREPQVCTLPPSRDELTKNQVSLWCLVKGFYPSDIAVEWESNGQPENNYKTTPPVLDSDGSFFLYSKLTVDKSRWQQGNVFSCSVMHEALHNRYTQKSLSLSP chain 3: DIVMTQSPLSLPVTPGEPASISCRSSQSLVHSNRNTYLHWYQQKPGQAPRLLIYKVSNRFSGVPDRFSGSGSGTDFTLKISRVEAEDVGVYYCGQGTQVPYTFGQGTKLEIKRTVAAPSVFIFPPSDEQLKSGTASVVCLLNNFYPREAKVQWKVDNALQSGNSQESVTEQDSKDSTYSLSSTLTLSKADYEKHKVYACEVTHQGLSSPVTKSFNRGEC |  | 34.6 nM and 31.1 nM
